Results reported in paper doi:10.1101/2025.09.11.675134, “Biodistribution-Driven Discovery Identifies a Glycosidase-Cleavable Linker to Reprogram Radiotheranostics” (bioRxiv, 2025).
“Also recorded” adds a separate entry of the source. Like-named read-outs stand apart in the source and are kept apart here.

Key:
β-galactosidase = β-galactosidase 10 KU/mL in PBS (10 mM, pH 7.2), 37 °C; for Cleaved product 86Y-DOTA-NHMe, % of the total activity: mixed 1:1 (v/v), radio-TLC
Description: To further confirm β-galactosidase-specific cleavage, ^86Y-DOTA-β-Gal-TATE was incubated in vitro with β-galactosidase and analyzed by radio-TLC over time.
To analyze radioactive urine metabolites, ^86Y-DOTA-MVK(ε)-TATE or ^86Y-DOTA-β-Gal-TATE (13 – 15 MBq in 200 μL PBS, 4 μg) was intravenously injected into normal, non-tumor-bearing athymic nu/nu mice (n = 3). As reference controls, standard metabolites of ^86Y-DOTA-MVK(ε)-TATE (^86Y-DOTA-G-M-OH) and ^86Y-DOTA-β-Gal-TATE (^86Y-DOTA-NHMe) were also prepared and administered to normal athymic, non-tumor-bearing nu/nu mice. Urine samples were collected 1 hour post-injection, centrifuged at 10,000 rpm, and subsequently analyzed by radio-HPLC for each ^86Y-labeled DOTA-TATE variant. The radio-HPLC peaks were compared with those of the standard metabolites (^86Y-DOTA-G-M-OH or ^86Y-DOTA-NHMe). Radio-HPLC analysis was conducted under the same conditions as those used for analyzing the radiolabeled the DOTA-TATE variants, using an Agilent 1260 Infinity II system with a TSK-gel Octadecyl-4PW column and a gradient elution method. For in vitro enzyme-mediated cleavage, β-galactosidase was prepared in PBS (10 mM, pH 7.2) at 10 KU/mL. ^86Y-DOTA-β-Gal-TATE (13–15 MBq in 200 μL PBS) was mixed 1:1 (v/v) with β-galactosidase solution and incubated at 37 °C. Aliquots were taken at 1, 4, and 24 h, centrifuged at 10,000 rpm, and the supernatants were analyzed by radio-TLC. The 24 h sample was further examined by radio-HPLC to confirm metabolite identity.

AR42J xenografts [1] = assay: Ex vivo biodistribution of 111In-labeled variants in AR42J xenograft mice; set-up: species or system athymic nude mice; conditions: AR42J xenografts, 1 h post-injection
Description: For studies involving three variants (DOTA -TATE, DOTA-MVK(ε)-TATE, and DOTA-β-Gal-TATE), AR42J cells (5 × 10^6 cells per mouse) were subcutaneously inoculated into the right shoulder of the mice. Tumors were allowed to grow for 3 weeks, reaching a volume of 100 –200 mm³ before being used in subsequent experiments. For biodistribution or PET imaging studies, mice bearing subcutaneous AR42J tumors were administered 1.4 – 1.8 MBq (1 μg) of 111In-labeled DOTA-TATE variants or 2.7 – 4.9 MBq (1 μg) of 86Y-labeled DOTA-TATE variants via tail vein injection. Biodistribution studies with 111In-labeled DOTA -TATE variants were performed 1 hour post -injection (n = 3 per cohort), while studies with 86Y-labeled DOTA-TATE variants were conducted at 1, 4, and 24 hours post -injection (n = 3 per cohort). Mice were euthanized by CO2 asphyxiation, and 10 tissues, including tumors, were collected. All samples were weighed and counted on a gamma counter (2480 Wizard 3, Perkin Elmer Inc., Waltham, MA, USA). Results are presented as percentage of injected activity per gram (%IA/g) and mean values ± standard deviations. […]

AR42J xenografts [2] = assay: Targeted alpha particle therapy, two-cycle regimen; type: in vivo, athymic nu/nu mice; conditions: 2 × 148 kBq
Description: To further assess therapeutic efficacy, AR42J xenograft-bearing mice received two cycles of ^225Ac-labeled constructs (2 × 148 kBq, administered 8 days apart) (Fig. 5D). […] Complete tumor regression occurred in two of six animals in each cleavable linker group.
Mice received either a one-cycle regimen (n=8 per cohort) or a two-cycle regimen (n=6 per cohort) at an 8-day interval. Tumor volume and body weight were measured twice weekly after treatment using a digital caliper. Tumor volume was calculated using the formula V (mm^3) = (l × w^2)/2, where l (length) was the larger of the two perpendicular tumor axes, and w (width) was the smaller axis. Survival was monitored, with the endpoint defined as a tumor volume exceeding 2000 mm^3, a weight loss greater than 20% from baseline, or signs of distress in the mice.

[3] = Blood chemistry and complete blood count during therapy; type: in vivo, athymic nu/nu mice; conditions: one cycle of 225Ac treatment (148 kBq), blood at 0, 10 and 31 days, VetScan HM5
From the text: Blood samples were collected at multiple timepoints during therapy studies and analyzed to assess toxicity (Fig. S25). Biochemical parameters of liver (e.g. alanine aminotransferase, bilirubin) and renal (blood urea nitrogen, and creatinine) toxicity remained mostly within normal limits across all groups. […] These findings further support the favorable tolerability profiles of the cleavable linker constructs.
Additionally, a basic metabolic panel (BMP) and complete blood count (CBC) analysis were performed to monitor hematological parameters and potential treatment-related toxicity. For the one-cycle therapy cohort, blood was collected at 0-, 10-, and 31-days post-treatment, whereas for the two-cycle therapy cohort, blood was collected at 10 days, 3 months, and 6 months post-treatment. Samples were obtained retro-orbitally into potassium EDTA-coated tubes and analyzed using the Vetscan VS2 (Abaxis, Union City, CA, USA) and VetScan HM5 hematology analyzer (Abaxis). Although these instruments provide species-specific reference intervals, manufacturer-supplied ranges may not fully reflect our study cohort. […] The following parameters were assessed and compared: alanine transaminase (ALT, U/L), total bilirubin (TBIL, μmol/L), creatinine (CRE, μmol/L), blood urea nitrogen (BUN, mmol/L), total white blood cell count (WBC, 10^9/L), hemoglobin (HGB, g/dL), and platelets (PLT, 10^9/L).

C[C@@H](O)[C@H](NC(=O)[C@@H]1CSSC[C@H](NC(=O)[C@@H](Cc2ccccc2)NC(=O)CCCC(=O)Nc2cc(COC(=O)N(C)CCNC(=O)CN3CCN(CC(=O)O)CCN(CC(=O)O)CCN(CC(=O)O)CC3)ccc2O[C@@H]2O[C@H](CO)[C@H](O)[C@H](O)[C@H]2O)C(=O)N[C@@H](Cc2ccc(O)cc2)C(=O)N[C@H](Cc2c[nH]c3ccccc23)C(=O)N[C@@H](CCCCN)C(=O)N[C@@H]([C@@H](C)O)C(=O)N1)C(=O)O [^86Y-DOTA-β-Gal-TATE, metal not drawn]
Compound converted to 86Y-DOTA-NHMe (β-galactosidase; 24 h sample, radio-HPLC (peak at 2.6 min)): 90.7% | Cleaved product 86Y-DOTA-NHMe, % of the total activity (β-galactosidase; 1 h): 24.6% | Cleaved product 86Y-DOTA-NHMe, % of the total activity (β-galactosidase; 4 h): 50.2% | Cleaved product 86Y-DOTA-NHMe, % of the total activity (β-galactosidase; 24 h): 88.8%

C[C@@H](O)[C@H](NC(=O)[C@@H]1CSSC[C@H](NC(=O)[C@@H](Cc2ccccc2)NC(=O)CCCC(=O)Nc2cc(COC(=O)N(C)CCNC(=O)CN3CCN(CC(=O)O)CCN(CC(=O)O)CCN(CC(=O)O)CC3)ccc2O[C@@H]2O[C@H](CO)[C@H](O)[C@H](O)[C@H]2O)C(=O)N[C@@H](Cc2ccc(O)cc2)C(=O)N[C@H](Cc2c[nH]c3ccccc23)C(=O)N[C@@H](CCCCN)C(=O)N[C@@H]([C@@H](C)O)C(=O)N1)C(=O)O [^111In-DOTA-β-Gal-TATE, metal not drawn]
Improvement of T/K ratio over DOTA-TATE (AR42J xenografts [1]): 2.7 fold | Increase in tumor uptake compared to DOTA-TATE (AR42J xenografts [1]): ~ 90% | Reduction in kidney retention compared to DOTA-TATE (AR42J xenografts [1]): ~ 29%

C[C@@H](O)[C@H](NC(=O)[C@@H]1CSSC[C@H](NC(=O)[C@@H](Cc2ccccc2)NC(=O)CCCC(=O)Nc2cc(COC(=O)N(C)CCNC(=O)CN3CCN(CC(=O)O)CCN(CC(=O)O)CCN(CC(=O)O)CC3)ccc2O[C@@H]2O[C@H](CO)[C@H](O)[C@H](O)[C@H]2O)C(=O)N[C@@H](Cc2ccc(O)cc2)C(=O)N[C@H](Cc2c[nH]c3ccccc23)C(=O)N[C@@H](CCCCN)C(=O)N[C@@H]([C@@H](C)O)C(=O)N1)C(=O)O [^225Ac-DOTA-β-Gal-TATE, metal not drawn]
Tumor control (AR42J xenografts [2]; 8-day interval, n = 6): significantly smaller; also recorded: prolonged tumor control with sustained growth inhibition | Median survival time (AR42J xenografts [2]; 8 days apart, AR42J xenograft-bearing mice, n = 6, Kaplan–Meier, vehicle 26.5 days): 191.5 days | Mice with tumor volumes below 100 mm^3 by the final monitoring point (AR42J xenografts [2]; n = 6): all six | White blood cell counts [3]: transient decrease following one cycle of ^225Ac treatment that recovered at later time points
